According to publication PMC4732765, “Long-Term Persistence of Bi-functionality Contributes to the Robustness of Microbial Life through Exaptation” (PLoS Genetics, 2016):

How the values were obtained:
Experiment in all cases: purified protein
purified protein [1] = substrate: NC(=O)c1ncn([C@@H]2O[C@H](COP(=O)(O)O)[C@@H](O)[C@H]2O)c1N=CN[C@@H]1O[C@H](COP(=O)(O)O)[C@@H](O)[C@H]1O; assay type: biochemical, Desulfovibrio desulfuricans; details: 25 °C, HisA reaction
purified protein [2] = substrate: O=C(O)c1ccccc1N[C@@H]1O[C@H](COP(=O)(O)O)[C@@H](O)[C@H]1O; assay type: biochemical, Desulfovibrio desulfuricans; details: 25 °C, TrpF reaction, PRA generated in situ from anthranilate and excess PRPP with yeast anthranilate phosphoribosyl transferase
purified protein [3] = substrate: NC(=O)c1ncn([C@@H]2O[C@H](COP(=O)(O)O)[C@@H](O)[C@H]2O)c1N=CN[C@@H]1O[C@H](COP(=O)(O)O)[C@@H](O)[C@H]1O; assay type: biochemical, Syntrophotalea carbinolica; details: 25 °C, HisA reaction
purified protein [4] = substrate: O=C(O)c1ccccc1N[C@@H]1O[C@H](COP(=O)(O)O)[C@@H](O)[C@H]1O; assay type: biochemical, Syntrophotalea carbinolica; details: 25 °C, TrpF reaction, PRA generated in situ from anthranilate and excess PRPP with yeast anthranilate phosphoribosyl transferase
purified protein [5] = substrate: NC(=O)c1ncn([C@@H]2O[C@H](COP(=O)(O)O)[C@@H](O)[C@H]2O)c1N=CN[C@@H]1O[C@H](COP(=O)(O)O)[C@@H](O)[C@H]1O; assay type: biochemical, synthetic construct; details: 25 °C, HisA reaction, enzyme shows hysteresis
purified protein [6] = substrate: O=C(O)c1ccccc1N[C@@H]1O[C@H](COP(=O)(O)O)[C@@H](O)[C@H]1O; assay type: biochemical, synthetic construct; details: 25 °C, TrpF reaction, PRA generated in situ from anthranilate and excess PRPP with yeast anthranilate phosphoribosyl transferase, enzyme shows hysteresis
purified protein [7] = substrate: NC(=O)c1ncn([C@@H]2O[C@H](COP(=O)(O)O)[C@@H](O)[C@H]2O)c1N=CN[C@@H]1O[C@H](COP(=O)(O)O)[C@@H](O)[C@H]1O; assay type: biochemical, Thermotoga maritima; details: 25 °C, HisA reaction
purified protein [8] = substrate: O=C(O)c1ccccc1N[C@@H]1O[C@H](COP(=O)(O)O)[C@@H](O)[C@H]1O; assay type: biochemical, Thermotoga maritima; details: 25 °C, TrpF reaction, PRA generated in situ from anthranilate and excess PRPP with yeast anthranilate phosphoribosyl transferase

B1: ddHisA (Desulfovibrio desulfuricans ATCC 27774) (protein)
chain: MIIFPAVDIQNGKAVRLKQGRAHESTVFAESPVDAARAWEEAGARWLHVVDLDGAFDGAAQSRRIVRDICAALAIPVQLGGGIRDMHTAEAYLEAGVSRLIIGTLALEQPTLFADMCRAFPGRVGVSLDAEGGRLKSRGWVEDTGMTVDTALPRLLDDGAAFVIYTDIERDGMQCGVNVAALEHLARLSTVPVIAAGGVATLEDIQKLYPLTLETSLMGAVSGRALYEGTLDLKEANAWIDARKNTPESA
notes: full-length hisA in pET24a (NdeI/XhoI), His-tag (HisTrap), E. coli T7 Express with pRARE
Which Km (purified protein [1]) does the source give for B1 here?
The Km was 2.8 µM.

And the kcat (purified protein [1])?
The kcat was 1.3 s⁻¹.

What about the kcat/Km (purified protein [1]) of the same protein?
The kcat/Km was 460000 M⁻¹ s⁻¹.

And the Km (purified protein [2])?
The Km was 161 µM.

And the kcat (purified protein [2])?
The kcat was 0.0023 s⁻¹.

And the kcat/Km (purified protein [2])?
Its kcat/Km is 14 M⁻¹ s⁻¹.

B2: pcHisA (Syntrophotalea carbinolica DSM 2380) (protein)
chain: MIVIPAIDLKEGRCVRLEQGLMEKDTVYNDNPGAQARSWQEQGGELLHIVDLDGAFAGVPRNRDAIRAIAEAVSIPTELGGGIRDLPTIEAYLELGIDRVILGTVAKENPELVREACRLFPGRIVVGIDARDGLVAVRGWADVTEKLATELAKEMEGFGVEAIIYTDIARDGMMGGPNLEATRALAESISVPVIASGGVSCLEDIARLMTIEDSGVTGVITGKALYTGSLDLREAVALTKGKA
notes: as for B1
How did the Km (purified protein [3]) turn out when B2 was run?
The Km was 1.8 µM.

What about the kcat (purified protein [3]) of the same protein?
The kcat was 0.4 s⁻¹.

And the kcat/Km (purified protein [3])?
Its kcat/Km is 220000 M⁻¹ s⁻¹.

What about the Km (purified protein [4]) of the same protein?
The Km was 303 µM.

And the kcat (purified protein [4])?
The kcat was 0.001 s⁻¹.

And the kcat/Km (purified protein [4])?
The kcat/Km was 3 M⁻¹ s⁻¹.

B3: CA-Bact-HisA (synthetic construct) (protein)
chain: MRIIPAIDLKDGRCVRLVQGDMEKATVYNDDPLEMAKQWVEQGAEWLHVVDLDGAFAGKPVNEDVIKEIAQKVSVKVQLGGGIRDLEDIEAYLDAGVDRVIIGTVAVKNPELVREMVEKYGERIVVGIDARDGMVAVKGWKETTEVKATDLAKRFEDAGVEAIIYTDIARDGMMQGPNIEAIRELAKAVSLPVIASGGVSSLEDIEALLAIEESGVAGVIVGKALYEGRLDLREALALAKKL
notes: synthetic gene in pET24a, His-tag (HisTrap), E. coli BL21-Gold (DE3)
What does the source list for B3?
Km (purified protein [5]): 0.5 µM; kcat (purified protein [5]): 0.05 s⁻¹; kcat/Km (purified protein [5]): 100000 M⁻¹ s⁻¹; Km (purified protein [6]): 3.2 µM; kcat (purified protein [6]): 0.00023 s⁻¹; kcat/Km (purified protein [6]): 70 M⁻¹ s⁻¹

B4: tmHisA (Thermotoga maritima MSB8) (protein)
chain: MLVVPAIDLFRGKVARMIKGRKENTIFYEKDPVELVEKLIEEGFTLIHVVDLSNAIENSGENLPVLEKLSEFAEHIQIGGGIRSLDYAEKLRKLGYRRQIVSSKVLEDPSFLKSLREIDVEPVFSLDTRGGRVAFKGWLAEEEIDPVSLLKRLKEYGLEEIVHTEIEKDGTLQEHDFSLTKKIAIEAEVKVLAAGGISSENSLKTAQKVHTETNGLLKGVIVGRAFLEGILTVEVMKRYAR
notes: full-length hisA in pET21a (NdeI/NotI), His-tag (HisTrap), E. coli BL21-CodonPlus-(DE3)-RIPL; heat step 70 °C
Which results are given for B4?
Km (purified protein [7]): 5.6 µM; kcat (purified protein [7]): 1 s⁻¹; kcat/Km (purified protein [7]): 180000 M⁻¹ s⁻¹; Km (purified protein [8]): 60 µM
